Assay results from patent publication US20140271457A1 (AbbVie / Abbott, published 2014).
Residue numbers refer to the chain shown, from its start.

B1: DVD3119 (bispecific antibody, IgG1)
VH: EVQLVQSGAEVKKPGASVKVSCKASGYTFTTYGVSWVRQAPGQGLEWMGEIYPGNYNTYYNEKFRGRVTMTTDTSTSTAYMELRSLRSDDTAVYYCARWRTSYFSDYGYFDYWGQGTTVTVSSASTKGPEVQLVQSGAEVKKPGASVKVSCKASGYTFNNYGIIWVRQAPGQGLEWMGWINTYTGKPTYAQKFQGRVTMTTDTSTSTAYMELSSLRSEDTAVYYCARKLFNTVAVTDNAMDYWGQGTTVTVSS
VL: DVVMTQSPLSLPVTLGQPASISCRSSQSLVHSHGNTYLHWYQQRPGQSPRLLIYTVSNRFSGVPDRFSGSGSGTDFTLKISRVEAEDVGVYYCSQSTHVPYTFGGGTKVEIKRTVAAPDIQMTQSPSSLSASVGDRVTITCRASQDIENYLNWYQQKPGKAPKLLIYYTSRLQSGVPSRFSGSGSGTDFTLTISSLQPEDFATYFCQQGNTQPPTFGQGTKLEIKR
B2: DVD3122 (bispecific antibody, IgG1)
VH: EVQLVQSGAEVKKPGASVKVSCKASGYTFTTYGVSWVRQAPGQGLEWMGEIYPGNYNTYYNEKFRGRVTMTTDTSTSTAYMELRSLRSDDTAVYYCARWRTSYFSDYGYFDYWGQGTTVTVSSASTKGPSVFPLAPEVQLVQSGAEVKKPGASVKVSCKASGYTFNNYGIIWVRQAPGQGLEWMGWINTYTGKPTYAQKFQGRVTMTTDTSTSTAYMELSSLRSEDTAVYYCARKLFNTVAVTDNAMDYWGQGTTVTVSS
VL: B1 VL
B3: DVD3121 (bispecific antibody, IgG1)
VH: B1 VH
VL: DVVMTQSPLSLPVTLGQPASISCRSSQSLVHSHGNTYLHWYQQRPGQSPRLLIYTVSNRFSGVPDRFSGSGSGTDFTLKISRVEAEDVGVYYCSQSTHVPYTFGGGTKVEIKRTVAAPSVFIFPPDIQMTQSPSSLSASVGDRVTITCRASQDIENYLNWYQQKPGKAPKLLIYYTSRLQSGVPSRFSGSGSGTDFTLTISSLQPEDFATYFCQQGNTQPPTFGQGTKLEIKR
B4: DVD3118 (bispecific antibody, IgG1)
VH: EVQLVQSGAEVKKPGASVKVSCKASGYTFTTYGVSWVRQAPGQGLEWMGEIYPGNYNTYYNEKFRGRVTMTTDTSTSTAYMELRSLRSDDTAVYYCARWRTSYFSDYGYFDYWGQGTTVTVSSGGGGSGGGGSEVQLVQSGAEVKKPGASVKVSCKASGYTFNNYGIIWVRQAPGQGLEWMGWINTYTGKPTYAQKFQGRVTMTTDTSTSTAYMELSSLRSEDTAVYYCARKLFNTVAVTDNAMDYWGQGTTVTVSS
VL: DVVMTQSPLSLPVTLGQPASISCRSSQSLVHSHGNTYLHWYQQRPGQSPRLLIYTVSNRFSGVPDRFSGSGSGTDFTLKISRVEAEDVGVYYCSQSTHVPYTFGGGTKVEIKRGGSGGGGSGDIQMTQSPSSLSASVGDRVTITCRASQDIENYLNWYQQKPGKAPKLLIYYTSRLQSGVPSRFSGSGSGTDFTLTISSLQPEDFATYFCQQGNTQPPTFGQGTKLEIKR
B5: DVD3167 (bispecific antibody, IgG1)
VH: EVQLVQSGAEVKKPGASVKVSCKASGYTFANYGIIWVRQAPGQGLEWMGWINTYTGKPTYAQKFQGRVTMTTDTSTSTAYMELSSLRSEDTAVYYCARKLFTTMDVTDNAMDYWGQGTTVTVSSASTKGPSVFPLAPEVQLVQSGAEVKKPGASVKVSCKASGYTFTSYWMHWVRQAPGQGLEWIGNINPKGGSNIYNEKFQGRVTMTRDTSISTAYMELSRLRSDDTAVYYCARLDYFGDSFDLWGQGTTVTVSS
VL: DIQMTQSPSSLSASVGDRVTITCRASQDISQYLNWYQQKPGKAPKLLIYYTSRLQSGVPSRFSGSGSGTDFTLTISSLQPEDFATYFCQQGNTWPPTFGQGTKLEIKRTVAAPDIQMTQSPSSLSASVGDRVTITCRASQGIRNYLNWYQQKPGKAPKLLIYYASNLEVGVPSRFSGSGSGTDYTLTISSLQPEDFATYYCQQDNRFPYTFGGGTKVEIKR
B6: DVD3177 (bispecific antibody, IgG1)
VH: B5 VH with A30N, T102N, M104V, D105A
VL: B5 VL with S30E, Q31N, W94Q
B7: DVD2698 (bispecific antibody, IgG1)
VH: EVQLVQSGAEVKKPGASVKVSCKASGYTFTKYWLGWVRQAPGQGLEWMGDIYPGYDYTHYNEKFKDRVTLTTDTSTSTAYMELRSLRSDDTAVYYCARSDGSSTYWGQGTLVTVSSGGGGSGGGGSEVQLVESGGGLVQPGGSLRLSCAASGFTFSNYGVTWVRQAPGKGLEWVSMIWADGSTHYASSVKGRFTISRDNSKNTLYLQMNSLRAEDTAVYYCAREWQHGPVAYWGQGTLVTVSS
VL: DVLMTQTPLSLPVTPGEPASISCTSSQNIVHSNGNTYLEWYLQKPGQSPQLLIYKVSNRFSGVPDRFSGSGSGTDFTLKISRVEAEDVGVYYCFQVSHVPYTFGGGTKVEIKRGGSGGGGSGDIQMTQSPSSLSASVGDRVTITCRASQLVSSAVAWYQQKPGKAPKLLIYWASARHTGVPSRFSGSGSGTDFTLTISSLQPEDFATYYCQQHYKTPFTFGQGTKLEIKR
B8: DVD2694 (bispecific antibody, IgG1)
VH: EVQLVESGGGLVQPGGSLRLSCAASGFTFSNYGVTWVRQAPGKGLEWVSMIWADGSTHYASSVKGRFTISRDNSKNTLYLQMNSLRAEDTAVYYCAREWQHGPVAYWGQGTLVTVSSASTKGPEVQLVQSGAEVKKPGASVKVSCKASGYTFTKYWLGWVRQAPGQGLEWMGDIYPGYDYTHYNEKFKDRVTLTTDTSTSTAYMELRSLRSDDTAVYYCARSDGSSTYWGQGTLVTVSS
VL: DIQMTQSPSSLSASVGDRVTITCRASQLVSSAVAWYQQKPGKAPKLLIYWASARHTGVPSRFSGSGSGTDFTLTISSLQPEDFATYYCQQHYKTPFTFGQGTKLEIKRTVAAPDVLMTQTPLSLPVTPGEPASISCTSSQNIVHSNGNTYLEWYLQKPGQSPQLLIYKVSNRFSGVPDRFSGSGSGTDFTLKISRVEAEDVGVYYCFQVSHVPYTFGGGTKVEIKR
B9: DVD2699 (bispecific antibody, IgG1)
VH: EVQLVQSGAEVKKPGASVKVSCKASGYTFTKYWLGWVRQAPGQGLEWMGDIYPGYDYTHYNEKFKDRVTLTTDTSTSTAYMELRSLRSDDTAVYYCARSDGSSTYWGQGTLVTVSSASTKGPEVQLVESGGGLVQPGGSLRLSCAASGFTFSNYGVTWVRQAPGKGLEWVSMIWADGSTHYASSVKGRFTISRDNSKNTLYLQMNSLRAEDTAVYYCAREWQHGPVAYWGQGTLVTVSS
VL: DVLMTQTPLSLPVTPGEPASISCTSSQNIVHSNGNTYLEWYLQKPGQSPQLLIYKVSNRFSGVPDRFSGSGSGTDFTLKISRVEAEDVGVYYCFQVSHVPYTFGGGTKVEIKRTVAAPDIQMTQSPSSLSASVGDRVTITCRASQLVSSAVAWYQQKPGKAPKLLIYWASARHTGVPSRFSGSGSGTDFTLTISSLQPEDFATYYCQQHYKTPFTFGQGTKLEIKR
B10: DVD2701 (bispecific antibody, IgG1)
VH: B9 VH
VL: DVLMTQTPLSLPVTPGEPASISCTSSQNIVHSNGNTYLEWYLQKPGQSPQLLIYKVSNRFSGVPDRFSGSGSGTDFTLKISRVEAEDVGVYYCFQVSHVPYTFGGGTKVEIKRTVAAPSVFIFPPDIQMTQSPSSLSASVGDRVTITCRASQLVSSAVAWYQQKPGKAPKLLIYWASARHTGVPSRFSGSGSGTDFTLTISSLQPEDFATYYCQQHYKTPFTFGQGTKLEIKR
B11: DVD2702 (bispecific antibody, IgG1)
VH: EVQLVQSGAEVKKPGASVKVSCKASGYTFTKYWLGWVRQAPGQGLEWMGDIYPGYDYTHYNEKFKDRVTLTTDTSTSTAYMELRSLRSDDTAVYYCARSDGSSTYWGQGTLVTVSSASTKGPSVFPLAPEVQLVESGGGLVQPGGSLRLSCAASGFTFSNYGVTWVRQAPGKGLEWVSMIWADGSTHYASSVKGRFTISRDNSKNTLYLQMNSLRAEDTAVYYCAREWQHGPVAYWGQGTLVTVSS
VL: B9 VL
B12: DVD2693 (bispecific antibody, IgG1)
VH: EVQLVESGGGLVQPGGSLRLSCAASGFTFSNYGVTWVRQAPGKGLEWVSMIWADGSTHYASSVKGRFTISRDNSKNTLYLQMNSLRAEDTAVYYCAREWQHGPVAYWGQGTLVTVSSGGGGSGGGGSEVQLVQSGAEVKKPGASVKVSCKASGYTFTKYWLGWVRQAPGQGLEWMGDIYPGYDYTHYNEKFKDRVTLTTDTSTSTAYMELRSLRSDDTAVYYCARSDGSSTYWGQGTLVTVSS
VL: DIQMTQSPSSLSASVGDRVTITCRASQLVSSAVAWYQQKPGKAPKLLIYWASARHTGVPSRFSGSGSGTDFTLTISSLQPEDFATYYCQQHYKTPFTFGQGTKLEIKRGGSGGGGSGDVLMTQTPLSLPVTPGEPASISCTSSQNIVHSNGNTYLEWYLQKPGQSPQLLIYKVSNRFSGVPDRFSGSGSGTDFTLKISRVEAEDVGVYYCFQVSHVPYTFGGGTKVEIKR
B13: DVD2743 (bispecific antibody, IgG1)
VH: B12 VH with T35E, M50G, S61D, S62T, G65S
VL: B12 VL with R24K, A53T, R54L, K93R

These binders were tested against Recombinant Human TNF-α/TNFSF1A (human, UniProt P01375 77-233) (assay: cell-based or functional assay).
Chain of Recombinant Human TNF-α/TNFSF1A (P01375 77-233 limits assumed): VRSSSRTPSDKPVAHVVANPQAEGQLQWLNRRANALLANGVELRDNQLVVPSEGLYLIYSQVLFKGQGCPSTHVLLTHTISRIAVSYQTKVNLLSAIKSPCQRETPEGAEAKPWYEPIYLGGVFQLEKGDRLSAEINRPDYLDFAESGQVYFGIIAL
In the case of B1, the “C-Terminal VD huTNFα Neutralization Assay IC50” value is reported as 0.163 nM.
With B2 the “C-Terminal VD huTNFα Neutralization Assay IC50” value was 0.018 nM.
With B3 the “C-Terminal VD huTNFα Neutralization Assay IC50” value was 0.036 nM.
B4 was tested, and the “C-Terminal VD huTNFα Neutralization Assay IC50” value was 0.065 nM.
For B5, the “N-Terminal VD huTNFα Neutralization Assay IC50” value was 0.018 nM.
With B6 the “N-Terminal VD huTNFα Neutralization Assay IC50” value was 0.022 nM.
In the case of B7, the “C-Terminal VD huTNFα Neutralization Assay IC50” value is reported as 0.085 nM.
For B8, the “N-Terminal VD huTNFα Neutralization Assay IC50” value was 0.001 nM.
For B9, the “C-Terminal VD huTNFα Neutralization Assay IC50” value was 0.064 nM.
With B10 the “C-Terminal VD huTNFα Neutralization Assay IC50” value was 0.036 nM.
With B11 the “C-Terminal VD huTNFα Neutralization Assay IC50” value was 0.106 nM.
B12 was tested, and the “N-Terminal VD huTNFα Neutralization Assay IC50” value was 0.001 nM.
B13 was tested, and the “N-Terminal VD huTNFα Neutralization Assay IC50” value was 0.006 nM.
